The values that follow come from patent US20200325224A1.

Assay [1] concerns the target human CD3 epsilon (on human T cells / CD3-positive Jurkat E6-1 cells) (human) (UniProt P07766). Put plainly: FACS on expanded human T cells (hum PBL), antibody at 10 µg/ml, Alexa488-labelled secondary antibody, geomean of fluorescence.
The target is the same in assay [2]. Put plainly: FACS on expanded human T cells (hum PBL), antibody at 0.1 µg/ml, Alexa488-labelled secondary antibody, geomean of fluorescence.
The target of assay [3] is cynomolgus CD3 epsilon (on expanded cynomolgus T cells) (cynomolgus) (UniProt Q95LI5). Put plainly: FACS on expanded cynomolgus T cells (cyno PBL), antibody at 0.1 µg/ml, Alexa488-labelled secondary antibody, geomean of fluorescence.
Chain of cynomolgus CD3 epsilon (on expanded cynomolgus T cells) (cynomolgus) (Q95LI5 22-197 limits assumed): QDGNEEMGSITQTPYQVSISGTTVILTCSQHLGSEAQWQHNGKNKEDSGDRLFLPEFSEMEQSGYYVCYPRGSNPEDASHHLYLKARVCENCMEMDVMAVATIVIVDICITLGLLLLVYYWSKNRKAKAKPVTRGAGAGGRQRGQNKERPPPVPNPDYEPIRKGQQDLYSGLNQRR
The target is the same in assay [4]. Put plainly: FACS on expanded cynomolgus T cells (cyno PBL), antibody at 1 µg/ml, Alexa488-labelled secondary antibody, geomean of fluorescence.
The target of assay [5] is human CD3 epsilon (on human T cells / CD3-positive Jurkat E6-1 cells) (human) (UniProt P07766). Put plainly: FACS on expanded human T cells (hum PBL), antibody at 1 µg/ml, Alexa488-labelled secondary antibody, geomean of fluorescence.
Chain of human CD3 epsilon (on human T cells / CD3-positive Jurkat E6-1 cells) (human) (P07766 23-207 limits assumed): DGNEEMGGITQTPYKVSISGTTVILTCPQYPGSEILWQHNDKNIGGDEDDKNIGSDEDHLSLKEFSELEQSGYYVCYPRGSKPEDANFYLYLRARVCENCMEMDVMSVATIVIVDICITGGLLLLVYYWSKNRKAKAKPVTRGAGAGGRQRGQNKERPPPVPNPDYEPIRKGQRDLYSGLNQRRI
The target of assay [6] is cynomolgus CD3 epsilon (on expanded cynomolgus T cells) (cynomolgus) (UniProt Q95LI5). Put plainly: FACS on expanded cynomolgus T cells (cyno PBL), antibody at 10 µg/ml, Alexa488-labelled secondary antibody, geomean of fluorescence.

anti-CD3 reference antibody SP34-2: the geomean at 10 µg/ml in assay [1] was found to be 15900; in assay [6], 19500. Also, the results for the geomean at 0.1 µg/ml in assay [2] and in assay [3] were 2610 and 5000, respectively. Also, the geomean at 1 µg/ml worked out at 16500 in assay [4] and 9610 in assay [5].
Take Iso rb (antibody): the geomean at 10 µg/ml in assay [1] is 47; in assay [6], 40. Also, the geomean at 0.1 µg/ml came out at 43 in assay [2] and 37 in assay [3]. In addition, the results for the geomean at 1 µg/ml in assay [4] and in assay [5] were 38 and 39, respectively.
Regarding M-IgG1 (antibody), the results for the geomean at 10 µg/ml in assay [1] and in assay [6] were 44 and 34, respectively. In addition, the geomean at 0.1 µg/ml came out at 40 in assay [2] and 33 in assay [3]. Also, the geomean at 1 µg/ml in assay [4] amounted to 33; in assay [5], 42.
With hu-IgG1 (antibody), the results for the geomean at 10 µg/ml in assay [1] and in assay [6] were 85 and 67, respectively. Also, the geomean at 0.1 µg/ml was 54 in assay [2] and 61 in assay [3]. Moreover, the geomean at 1 µg/ml in assay [4] is 64; in assay [5], 56.
